The source of these data is US20120178908A1 (Novo Nordisk, published 2012).

For test [1], the target named is T1, TLT-1 18-188 relipidated in 20:80 PS:PC vesicles (human) (UniProt Q86YW5).
T1 sequence: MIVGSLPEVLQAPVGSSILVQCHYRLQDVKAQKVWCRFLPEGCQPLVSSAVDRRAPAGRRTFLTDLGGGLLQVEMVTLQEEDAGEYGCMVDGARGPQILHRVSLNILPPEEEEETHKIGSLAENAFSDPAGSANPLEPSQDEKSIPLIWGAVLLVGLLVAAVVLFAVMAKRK

The target of test [2] is T2, TLT-1 receptor on the surface of activated human platelets (human) (UniProt Q86YW5).
T2 sequence: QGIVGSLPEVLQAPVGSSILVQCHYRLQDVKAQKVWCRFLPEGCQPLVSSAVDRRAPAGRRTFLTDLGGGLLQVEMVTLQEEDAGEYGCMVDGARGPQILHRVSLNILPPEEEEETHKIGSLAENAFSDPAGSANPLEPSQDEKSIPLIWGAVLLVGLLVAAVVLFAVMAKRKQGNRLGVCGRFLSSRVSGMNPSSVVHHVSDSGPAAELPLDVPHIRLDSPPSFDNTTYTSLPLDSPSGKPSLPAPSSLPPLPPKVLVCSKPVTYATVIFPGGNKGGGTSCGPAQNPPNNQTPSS

Test [3] addresses T3, GPIIbIIIa receptor on human platelets (human, UniProt P08514 32-1039; P05106 27-788). The test is described as follows: cell-based or functional assay.
Test [4] addresses T3, GPIIbIIIa receptor on human platelets. The test is described as follows: cell-based or functional assay. The source holds these as a separate data set.

T3 sequence (P08514 32-1039, chain 1 of 2): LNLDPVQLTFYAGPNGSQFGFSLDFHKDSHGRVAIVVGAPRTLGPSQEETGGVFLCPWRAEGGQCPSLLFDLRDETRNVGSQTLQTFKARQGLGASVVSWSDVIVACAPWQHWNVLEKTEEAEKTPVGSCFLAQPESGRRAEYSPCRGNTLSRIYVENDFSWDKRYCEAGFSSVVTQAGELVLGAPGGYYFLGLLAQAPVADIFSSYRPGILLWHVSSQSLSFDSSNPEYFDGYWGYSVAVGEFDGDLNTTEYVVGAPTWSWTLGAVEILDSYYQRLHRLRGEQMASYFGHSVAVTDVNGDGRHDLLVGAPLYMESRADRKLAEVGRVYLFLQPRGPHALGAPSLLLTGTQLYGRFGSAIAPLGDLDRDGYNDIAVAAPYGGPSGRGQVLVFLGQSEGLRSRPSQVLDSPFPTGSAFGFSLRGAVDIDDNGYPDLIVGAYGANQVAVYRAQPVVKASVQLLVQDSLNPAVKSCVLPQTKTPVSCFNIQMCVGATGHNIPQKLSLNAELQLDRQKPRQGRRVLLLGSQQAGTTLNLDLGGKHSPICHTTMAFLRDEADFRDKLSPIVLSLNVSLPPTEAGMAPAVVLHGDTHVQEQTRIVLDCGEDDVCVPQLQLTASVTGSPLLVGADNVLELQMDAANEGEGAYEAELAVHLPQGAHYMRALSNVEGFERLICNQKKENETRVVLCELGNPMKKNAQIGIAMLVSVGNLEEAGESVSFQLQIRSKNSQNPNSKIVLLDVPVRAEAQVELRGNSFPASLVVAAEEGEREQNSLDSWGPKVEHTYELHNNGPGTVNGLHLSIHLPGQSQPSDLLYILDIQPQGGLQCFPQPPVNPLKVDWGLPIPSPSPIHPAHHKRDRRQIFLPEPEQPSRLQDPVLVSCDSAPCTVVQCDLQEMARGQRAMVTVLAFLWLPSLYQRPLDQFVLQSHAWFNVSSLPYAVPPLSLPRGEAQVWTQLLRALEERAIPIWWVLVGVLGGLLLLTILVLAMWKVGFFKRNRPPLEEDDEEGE
T3 sequence (P05106 27-788, chain 2 of 2): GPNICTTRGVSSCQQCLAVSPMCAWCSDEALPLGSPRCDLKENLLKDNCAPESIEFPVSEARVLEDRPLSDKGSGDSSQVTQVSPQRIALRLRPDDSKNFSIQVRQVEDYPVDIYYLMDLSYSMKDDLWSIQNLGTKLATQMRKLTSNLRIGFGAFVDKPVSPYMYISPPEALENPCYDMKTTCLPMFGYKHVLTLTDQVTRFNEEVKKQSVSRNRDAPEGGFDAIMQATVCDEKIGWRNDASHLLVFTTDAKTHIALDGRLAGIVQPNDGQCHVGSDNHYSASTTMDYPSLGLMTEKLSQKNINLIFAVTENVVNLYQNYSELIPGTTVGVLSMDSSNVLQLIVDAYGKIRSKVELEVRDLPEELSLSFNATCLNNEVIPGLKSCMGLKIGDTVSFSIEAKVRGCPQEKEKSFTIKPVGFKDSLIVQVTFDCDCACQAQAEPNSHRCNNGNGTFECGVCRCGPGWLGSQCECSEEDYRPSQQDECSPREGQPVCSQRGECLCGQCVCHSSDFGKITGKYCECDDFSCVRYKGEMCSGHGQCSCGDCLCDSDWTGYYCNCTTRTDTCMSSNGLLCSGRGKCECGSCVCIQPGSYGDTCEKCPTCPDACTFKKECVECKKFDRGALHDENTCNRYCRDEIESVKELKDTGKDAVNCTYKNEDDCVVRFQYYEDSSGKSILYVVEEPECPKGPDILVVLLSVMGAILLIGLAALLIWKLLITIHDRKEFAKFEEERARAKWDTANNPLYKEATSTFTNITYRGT

B1: Fab 0012-LC-L3-TF;VH-CH1-HPC4 (protein)
light chain-linker-TF: DVVMTQTPLSLPVSLGDQASISCRSSQSLVHRNGNTYFHWCLQKPGQSPKLLIYKVSNRFSGVPDRFSGSGSGTDFTLKISRVEAEDLGVYFCSQSTHVPYTFGGGTKLEIKRTVAAPSVFIFPPSDEQLKSGTASVVCLLNNFYPREAKVQWKVDNALQSGNSQESVTEQDSKDSTYSLSSTLTLSKADYEKHKVYACEVTHQGLSSPVTKSFNRGECGSGGGGSGGGGSSGTTNTVAAYNLTWKSTNFKTILEWEPKPVNQVYTVQISTKSGDWKSKCFYTTDTECDLTDEIVKDVKQTYLARVFSYPAGNVESTGSAGEPLYENSPEFTPYLETNLGQPTIQSFEQVGTKVNVTVEDERTLVRRNNTFLSLRDVFGKDLIYTLYYWKSSSSGKKTAKTNTNEFLIDVDKGENYCFSVQAVIPSRTVNRKSTDSPVECMGQEKGEFRE
VH-CH1-HPC4: EVKLLESGGGLVQPGGSLKLSCAASGFDFSRYWMTWVRQAPGKGLEWIGEINPDSSTINYTPSLKDKFIISRDNAKNTLYLQMSEVRSEDTALYYCASGVFTSWGQGTLVTVSAASTKGPSVFPLAPCSRSTSESTAALGCLVKDYFPEPVTVSWNSGALTSGVHTFPAVLQSSGLYSLSSVVTVPSSSLGTKTYTCNVDHKPSNTKVDKRVESKEDQVDPRLIDGK
For B1, in test [1], the FVII-mediated FXa generation % Activity lipidated TLT-1 was 98% and the FVIIa-mediated FXa generation % Activity lipidated TLT-1 is 105%. Moreover, in test [2], the FVII-mediated FXa generation % Activity activated plts (n 1) stood at 98% and the FVIIa-mediated FXa generation % Activity activated plts (n 1) turned out to be 97%.

B2: Fab 0012-LC-L7-TF;VH-CH1-HPC4 (protein)
light chain-linker-TF: DVVMTQTPLSLPVSLGDQASISCRSSQSLVHRNGNTYFHWCLQKPGQSPKLLIYKVSNRFSGVPDRFSGSGSGTDFTLKISRVEAEDLGVYFCSQSTHVPYTFGGGTKLEIKRTVAAPSVFIFPPSDEQLKSGTASVVCLLNNFYPREAKVQWKVDNALQSGNSQESVTEQDSKDSTYSLSSTLTLSKADYEKHKVYACEVTHQGLSSPVTKSFNRGECGGGGSGGGGSGGGGSGSGGGGSGGGGSGGGGSSGTTNTVAAYNLTWKSTNFKTILEWEPKPVNQVYTVQISTKSGDWKSKCFYTTDTECDLTDEIVKDVKQTYLARVFSYPAGNVESTGSAGEPLYENSPEFTPYLETNLGQPTIQSFEQVGTKVNVTVEDERTLVRRNNTFLSLRDVFGKDLIYTLYYWKSSSSGKKTAKTNTNEFLIDVDKGENYCFSVQAVIPSRTVNRKSTDSPVECMGQEKGEFRE
VH-CH1-HPC4: EVKLLESGGGLVQPGGSLKLSCAASGFDFSRYWMTWVRQAPGKGLEWIGEINPDSSTINYTPSLKDKFIISRDNAKNTLYLQMSEVRSEDTALYYCASGVFTSWGQGTLVTVSAASTKGPSVFPLAPCSRSTSESTAALGCLVKDYFPEPVTVSWNSGALTSGVHTFPAVLQSSGLYSLSSVVTVPSSSLGTKTYTCNVDHKPSNTKVDKRVESKEDQVDPRLIDGK
In test [1], B2 yielded an FVII-mediated FXa generation % Activity lipidated TLT-1 of 95% and an FVIIa-mediated FXa generation % Activity lipidated TLT-1 of 98%. In test [2], the FVII-mediated FXa generation % Activity activated plts (n 1) came to 92% and the FVIIa-mediated FXa generation % Activity activated plts (n 1) is 95%.

B3: Fab 0012-LC-L8-TF;VH-CH1-HPC4 (protein)
light chain-linker-TF: DVVMTQTPLSLPVSLGDQASISCRSSQSLVHRNGNTYFHWCLQKPGQSPKLLIYKVSNRFSGVPDRFSGSGSGTDFTLKISRVEAEDLGVYFCSQSTHVPYTFGGGTKLEIKRTVAAPSVFIFPPSDEQLKSGTASVVCLLNNFYPREAKVQWKVDNALQSGNSQESVTEQDSKDSTYSLSSTLTLSKADYEKHKVYACEVTHQGLSSPVTKSFNRGECGGGGSGGGGSGGGGSGGGGSGSGGGGSGGGGSGGGGSSGTTNTVAAYNLTWKSTNFKTILEWEPKPVNQVYTVQISTKSGDWKSKCFYTTDTECDLTDEIVKDVKQTYLARVFSYPAGNVESTGSAGEPLYENSPEFTPYLETNLGQPTIQSFEQVGTKVNVTVEDERTLVRRNNTFLSLRDVFGKDLIYTLYYWKSSSSGKKTAKTNTNEFLIDVDKGENYCFSVQAVIPSRTVNRKSTDSPVECMGQEKGEFRE
VH-CH1-HPC4: EVKLLESGGGLVQPGGSLKLSCAASGFDFSRYWMTWVRQAPGKGLEWIGEINPDSSTINYTPSLKDKFIISRDNAKNTLYLQMSEVRSEDTALYYCASGVFTSWGQGTLVTVSAASTKGPSVFPLAPCSRSTSESTAALGCLVKDYFPEPVTVSWNSGALTSGVHTFPAVLQSSGLYSLSSVVTVPSSSLGTKTYTCNVDHKPSNTKVDKRVESKEDQVDPRLIDGK
In test [1], B3 displayed an FVII-mediated FXa generation % Activity lipidated TLT-1 of 94% and an FVIIa-mediated FXa generation % Activity lipidated TLT-1 of 98%. In addition, in test [2], the FVII-mediated FXa generation % Activity activated plts (n 1) turned out to be 86% and the FVIIa-mediated FXa generation % Activity activated plts (n 1) was found to be 81%.

B4: Fab 0012-LC-L9-TF;VH-CH1-HPC4 (protein)
light chain-linker-TF: DVVMTQTPLSLPVSLGDQASISCRSSQSLVHRNGNTYFHWCLQKPGQSPKLLIYKVSNRFSGVPDRFSGSGSGTDFTLKISRVEAEDLGVYFCSQSTHVPYTFGGGTKLEIKRTVAAPSVFIFPPSDEQLKSGTASVVCLLNNFYPREAKVQWKVDNALQSGNSQESVTEQDSKDSTYSLSSTLTLSKADYEKHKVYACEVTHQGLSSPVTKSFNRGECGGGGSGGGGSGGGGSGGGGSGGGGSGSGGGGSGGGGSGGGGSSGTTNTVAAYNLTWKSTNFKTILEWEPKPVNQVYTVQISTKSGDWKSKCFYTTDTECDLTDEIVKDVKQTYLARVFSYPAGNVESTGSAGEPLYENSPEFTPYLETNLGQPTIQSFEQVGTKVNVTVEDERTLVRRNNTFLSLRDVFGKDLIYTLYYWKSSSSGKKTAKTNTNEFLIDVDKGENYCFSVQAVIPSRTVNRKSTDSPVECMGQEKGEFRE
VH-CH1-HPC4: EVKLLESGGGLVQPGGSLKLSCAASGFDFSRYWMTWVRQAPGKGLEWIGEINPDSSTINYTPSLKDKFIISRDNAKNTLYLQMSEVRSEDTALYYCASGVFTSWGQGTLVTVSAASTKGPSVFPLAPCSRSTSESTAALGCLVKDYFPEPVTVSWNSGALTSGVHTFPAVLQSSGLYSLSSVVTVPSSSLGTKTYTCNVDHKPSNTKVDKRVESKEDQVDPRLIDGK
In test [1], B4 came in with an FVII-mediated FXa generation % Activity lipidated TLT-1 of 88% and an FVIIa-mediated FXa generation % Activity lipidated TLT-1 of 95%. In test [2], this molecule displayed an FVII-mediated FXa generation % Activity activated plts (n 1) of 80% and an FVIIa-mediated FXa generation % Activity activated plts (n 1) of 76%.

B5: Fab 0012-LC-L6-TF;VH-CH1-HPC4 (protein)
light chain-linker-TF: DVVMTQTPLSLPVSLGDQASISCRSSQSLVHRNGNTYFHWCLQKPGQSPKLLIYKVSNRFSGVPDRFSGSGSGTDFTLKISRVEAEDLGVYFCSQSTHVPYTFGGGTKLEIKRTVAAPSVFIFPPSDEQLKSGTASVVCLLNNFYPREAKVQWKVDNALQSGNSQESVTEQDSKDSTYSLSSTLTLSKADYEKHKVYACEVTHQGLSSPVTKSFNRGECGGGGSGGGGSGSGGGGSGGGGSGGGGSSGTTNTVAAYNLTWKSTNFKTILEWEPKPVNQVYTVQISTKSGDWKSKCFYTTDTECDLTDEIVKDVKQTYLARVFSYPAGNVESTGSAGEPLYENSPEFTPYLETNLGQPTIQSFEQVGTKVNVTVEDERTLVRRNNTFLSLRDVFGKDLIYTLYYWKSSSSGKKTAKTNTNEFLIDVDKGENYCFSVQAVIPSRTVNRKSTDSPVECMGQEKGEFRE
VH-CH1-HPC4: EVKLLESGGGLVQPGGSLKLSCAASGFDFSRYWMTWVRQAPGKGLEWIGEINPDSSTINYTPSLKDKFIISRDNAKNTLYLQMSEVRSEDTALYYCASGVFTSWGQGTLVTVSAASTKGPSVFPLAPCSRSTSESTAALGCLVKDYFPEPVTVSWNSGALTSGVHTFPAVLQSSGLYSLSSVVTVPSSSLGTKTYTCNVDHKPSNTKVDKRVESKEDQVDPRLIDGK
In test [1], B5 came in with an FVII-mediated FXa generation % Activity lipidated TLT-1 of 94% and an FVIIa-mediated FXa generation % Activity lipidated TLT-1 of 101%. Besides, in test [2], the FVII-mediated FXa generation % Activity activated plts (n 1) stood at 95% and the FVIIa-mediated FXa generation % Activity activated plts (n 1) came out at 91%.

B6: Fab AP-3-LC-L4a-hTF.1-219; VH-CH1-HPC4 (other)
light: DIVMTQAAPSVPVTPGESVSISCRSSRSLLHSNGNTYLCWFLQRPGQSPQLLIYRMSNLASGVPDRFSGSGSGTAFTLRISRVEAEDVGVYYCMQHLEYPFTFGSGTKLEIKRTVAAPSVFIFPPSDEQLKSGTASVVCLLNNFYPREAKVQWKVDNALQSGNSQESVTEQDSKDSTYSLSSTLTLSKADYEKHKVYACEVTHQGLSSPVTKSFNRGECGSGGGGSGGGGSGGGGSSGTTNTVAAYNLTWKSTNFKTILEWEPKPVNQVYTVQISTKSGDWKSKCFYTTDTECDLTDEIVKDVKQTYLARVFSYPAGNVESTGSAGEPLYENSPEFTPYLETNLGQPTIQSFEQVGTKVNVTVEDERTLVRRNNTFLSLRDVFGKDLIYTLYYWKSSSSGKKTAKTNTNEFLIDVDKGENYCFSVQAVIPSRTVNRKSTDSPVECMGQEKGEFRE
heavy: QVQLQQSGAELVRPGTSVKISCKASGYTFTNYWLGWVKQRPGHGLEWIGDIYPGGGYNKYNENFKGKATLTADTSSSTAYMQLSSLTSEDSAVYFCAREYGNYDYAMDSWGQGTSVTVSSASTKGPSVFPLAPCSRSTSESTAALGCLVKDYFPEPVTVSWNSGALTSGVHTFPAVLQSSGLYSLSSVVTVPSSSLGTKTYTCNVDHKPSNTKVDKRVESKEDQVDPRLIDGK
As for B6, the “FX activation: response with resting platelets relative to activated platelets” value in test [3] was ~20 % of the response with activated platelets. Besides, in test [4], the “FVII-mediated FXa generation % Activity activated plts (n 1)” value was found to be 218% and the “FVIIa-mediated FXa generation % Activity activated plts (n 1)” value worked out at 164%.
